The Kd is the constant that tells how readily two partners part at equilibrium. A low value points to a tighter complex.

The record followed here is paper PMC8849478, “Scalable manufacturing platform for the production of methemoglobin as a non-oxygen carrying control material in studies of cell-free hemoglobin solutions” (PLoS ONE, 2022).

This series concerns the molecule itself. Kind of series: SEC; tetramer to dimers; SEC-HPLC of samples at 1.25, 2.5, 5, 10 and 20 μM (heme basis) after incubation in 0.1 M PBS pH 7.4 at 4°C for one week; fraction of tetramers by deconvolution, Kd from the intercept of the linearised plot (Eq 3). In general terms: Size exclusion chromatography separates by hydrodynamic size, large species first.

B1: bovine methemoglobin (complex)
chain 1: not shown
chain 2: not shown
notes: hemoglobin alpha chain, bovine, from whole bovine blood; hemoglobin beta chain, bovine, from whole bovine blood; same chains as m1; the heme iron is oxidised to the ferric state (HbFe3+); purity 99.7 ± 0.2%; also called metbHb; bovine metHb; copies: 2 + 2
B1 returned a Kd of 0.55 µM.

B2: bovine hemoglobin (complex)
chain 1: not shown
chain 2: not shown
notes: hemoglobin alpha chain, bovine, from whole bovine blood; hemoglobin beta chain, bovine, from whole bovine blood; alpha2beta2 tetramer with ferrous heme (HbFe2+); in equilibrium with alpha-beta dimers; also called bHb; unmodified bHb; source: purified from bovine red blood cells (lysis, tangential flow filtration); copies: 2 + 2
In the case of B2, the Kd amounted to 0.5 µM.
